# Results taken from the supplement of paper PMC10567573.
# ± gives the standard deviation.
# Assay: protein stability index of a GFP-peptide fusion (GPS, HEK-293T) (PSI 1-6); higher = more stable
# Settings: c terminus: a fixed tail appended
# 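Note: 24-mer peptide tiles fused after GFP, lentivirally expressed, FACS-sorted into six equal bins by GFP/DsRed ratio, decoded by Illumina sequencing, PSI is the read-weighted mean bin number.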
Sequence,protein stability index (treatment: DMSO),"protein stability index (treatment: MLN4924 1 uM, 8 h)"
TSSSSSSSRQTRPILKEQSSSSFS [KRT16],4.66 ± 0.14,4.61 ± 0.11
AALTNKHSQELTNEKEKALQAQVQ [SASS6],5.3 ± 0.086,5.46 ± 0.19
VNPQDGTNTLTRIAENGVSERDSE [EHMT1],5.56 ± 0.22,5.51 ± 0.11
YSKTWTKQPDLTMVRKIGCYAAMK [GAN],2.92 ± 0.96,2.42 ± 0.19
SSKSSGDLVDLFDGTSQSTGGSAD [CLINT1],5.41 ± 0.22,5.55 ± 0.21
RTDYSGRGELSARQMHLARFLRML [RAD51],2.18 ± 0.42,2.38 ± 0.26
KEASRHAIMRSPQMVSAIVRTMQN [CTNNB1],3.15 ± 0.32,3.3 ± 0.35
RCFYTRKDVRRHLVVHTGCKDFLC [PLAGL1],2.11 ± 0.47,2.19 ± 0.39
QAEVLSRQITSPVSGINGDIRAKK [HNF4A],5.05 ± 0.22,5.09 ± 0.036
PGLPGSTGNPKSEEPEVPDQEGLQ [SPNS1],5.39 ± 0.75,4.88 ± 0.22
KWTGDFFNKGIYDIHVGLRGVPLL [CLCN6],2.86 ± 0.8,2.24 ± 0.44
TFFGTELAPVRQQELASLLRTYLA [PBXIP1],2.22 ± 0.29,2.48 ± 0.43
VTLAAHFLGLGAPNCLSMGSRCLK [ZBED1],2.26 ± 0.37,2.19 ± 0.21
APLQSVFQGQKTELNNCISMLVAG [TRIM63],2.85 ± 0.19,2.88 ± 0.22
LTVRLHTQSVSECITEDGRTVAVG [PWWP2B],3.2 ± 0.33,3.15 ± 0.044
ATRVAPERLFGSAANVVSAKRNRL [ZBED1],3.83 ± 0.28,3.82 ± 0.14
LIPLANTGIVNHTHSRMGSIMSTG [CARM1],2.59 ± 0.12,2.47 ± 0.14
ITAGAHRLWSHRSYKARLPLRLFL [SCD],2.6 ± 0.63,2.47 ± 0.64
CEEKAKKNANRPLLDEIVPVYRRD [ACBD3],4.72 ± 0.18,4.61 ± 0.55
SALGPNVTKITLESFLAWKKRKRQ [ZC3H15],2.92 ± 0.14,3.14 ± 0.28
GTWDDAFATFCGGLAANGALQRLD [LRRC45],3.2 ± 0.052,3.12 ± 0.28
EVAAQLPAVRQLLPCARVQICRAQ [ZSWIM9],2.42 ± 0.23,2.77 ± 0.35

Sequence,protein stability index (treatment: DMSO),"protein stability index (treatment: MLN4924 1 uM, 8 h)"
SQAHSTLKLANHQRPVSRQVTCLR [TRAF3IP2],3.5 ± 0.21,3.61 ± 0.44
VTSFDSVVPEKLDDLVPKGKKFLL [ALG2],3.32 ± 0.25,3.31 ± 0.16
GEKSENNSSNSDIVHVEKEEVPEG [BCL2L13],5.8 ± 0.2,5.3 ± 0.76
REAGFHQYEVSNFARNGALSTHNW [RSAD1],2.97 ± 0.28,3.08 ± 0.2
MSNHTRERVTVAKLTLENFYSNLI [STK38L],2.21 ± 0.16,2.31 ± 0.31
PATGGAIPSWQIRTVKLIRYVSNW [PKD2L1],2.09 ± 0.24,2.24 ± 0.39
SLGYKEIRKGESRSEALAVDGAGK [CHGA],5.03 ± 0.52,4.95 ± 0.31
TLARCAKDILGFAVMFFIVFFAYA [PKD2L1],3.07 ± 0.66,2.68 ± 0.35
KLWSFFIYLLRRQIRTVIQYQTVR [CTDNEP1],2.99 ± 0.3,2.94 ± 0.37
RVWLKRDSGQYWPSVYHAMPSPCS [WDFY2],2.26 ± 0.27,2.33 ± 0.46
NETADLGLDIGAQGEPLGYRQDDP [CTNNB1],5.41 ± 0.2,5.46 ± 0.23
RRMFSSLFQFSNCSQGQQLATFSS [CCDC3],2.31 ± 0.2,2.34 ± 0.98
RPSEIKDYSPYFKTIEDLRNKIIA [KRT16],2.28 ± 0.18,2.41 ± 0.22
RYNDFVVFQEMLLHKFPYRMVPAL [SNX8],2.51 ± 0.41,2.22 ± 0.27
LLMVRASRRSGKTSAVLKAGRQSV [C6orf223],2.63 ± 0.17,2.85 ± 0.19
SGKVSSSSSSLGNKLQTLSPSHKG [ZC2HC1A],4.31 ± 0.14,4.26 ± 0.091
HHLPLPDNWKSQVEPETRAVIRWM [CPN1],2.62 ± 0.34,2.77 ± 0.44
YEDTNGQPQALLVDGDQSKILISG [TNXB],4.99 ± 0.13,4.73 ± 0.12
SPVSRNRLAQVKRKILVLDLDETL [CTDNEP1],2.6 ± 0.35,2.77 ± 0.36
NSVISVCSSSNLAGNDDSFGSLPS [DLC1],4.18 ± 0.21,4.23 ± 0.24
EDFSLPAYMDRRDHPLPEVAHVKH [COX4I1],4.32 ± 0.28,4.59 ± 0.18
SKSLCHDEIENLLDSDHRELIGDY [CDC25B],4.13 ± 0.26,4.31 ± 0.27
